Seven molecules from publication PMC10135883, “Structural Basis of the Interaction between Human Axin2 and SIAH1 in the Wnt/β-Catenin Signaling Pathway” (Biomolecules, 2023) can be followed below.

Usually Kd stands for the constant that tells how readily two partners part at equilibrium. By stoichiometry N is commonly meant the number of molecules, sites or subunits per partner or assembly.

Positions count from the first letter of the chain named. Numbers in names are those of the source.

Test [1] deals with SIAH1-SBD (substrate-binding domain of E3 ubiquitin-protein ligase SIAH1, residues 89-282) (human) (UniProt Q8IUQ4). In words: ITC; ITC200, 25 °C; 20 mM Tris-HCl pH8.0, 100 mM NaCl; 330 μM Axin2 peptide injected into 30 μM SIAH1; single binding site model. (In general: Isothermal titration calorimetry measures the heat released or taken up as one component is titrated into another.)

The target in test [2] is SIAH1-SBD (89-282) F165A (human) (UniProt Q8IUQ4). The description is as above.
The target of test [3] is T1, SIAH1-SBD (substrate-binding domain of E3 ubiquitin-protein ligase SIAH1, residues 89-282) (human, UniProt Q8IUQ4-1 89-282).
T1 chain: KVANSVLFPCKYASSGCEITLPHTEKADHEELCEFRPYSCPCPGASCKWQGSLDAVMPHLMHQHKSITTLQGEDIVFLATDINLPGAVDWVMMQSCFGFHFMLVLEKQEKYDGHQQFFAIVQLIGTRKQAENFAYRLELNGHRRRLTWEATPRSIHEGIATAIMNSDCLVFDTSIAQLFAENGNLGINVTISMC
In words: ITC.

Test [4] has as its target T2, SIAH1-SBD (substrate-binding domain of E3 ubiquitin-protein ligase SIAH1, residues 89-282) (human, UniProt Q8IUQ4-1 89-282).
T2 construct: Cloned from HeLa cDNA into pET28a with a TEV site at the N-terminal; The PDB code is printed as 8HEO in the results and as 8HE0 in the data availability statement; also called SIAH1-SBD_(89–282); SBD of SIAH1; source: E. coli BL21(DE3), purified (Ni-NTA, His-tag cleavage by TEV, Ni-NTA, HiTrap Q, Superdex 200); not shown: His tag, N-terminal, cleaved
T2 sequence (looked up): T1 chain
In words: BLI; Octet Red96; GST-Axin2-GBD or its deletion loaded onto GST biosensors, quenched with GST; dipped into SIAH1-SBD at 0.03-30 μM; free-GST biosensors as controls. The following applies: both partners purified. (In general: In BLI a coated tip is dipped into the sample, and binding shifts an interference pattern.)

The target in test [5] is T3, wt Axin2_(356–368) peptide used in ITC, Q9Y2T1.
T3 chain: HRLPKEMTPVEPA
In words: ITC. The following applies: chain shown with the change;; parent: 8.77.

Test [6] addresses T2, SIAH1-SBD (substrate-binding domain of …). In words: crystal structure; SIAH1-SBD mixed with Axin2 (356–376) at a molar ratio of 1:5; 0.1 M Bis-tris propane pH8.4, 24% PEG6000, 4 °C; 2.53 Å. The following applies: both partners purified.

For “Axin2_(356–368) E366A (from UniProt Q9Y2T1 356-368) (peptide)”, the Kd in test [1] was 97.1 µM.
Turning to “wt Axin2_(356–368) peptide used in ITC (from UniProt Q9Y2T1 356-368)”, in test [1], the Kd was 8.77 µM and the stoichiometry N came out at 1. Besides, in test [2], the Kd worked out at 14.4 µM.
As to HRLPKEMAPVEPATFAAELIS [Axin2_(356–368) single mutant T363A], the Kd in test [3] stood at 8.7 µM.

B1: GST-Axin2-GBD (GSK3 binding domain of Axin2, residues 334-432, with a GST-tag) (domain or fragment, human, UniProt Q9Y2T1 334-432, looked up)
chain: QREMHRSVKANGQVSLPHFPRTHRLPKEMTPVEPATFAAELISRLEKLKLELESRHSLEERLQQIREDEEREGSELTLNSREGAPTQHPLSLLPSGSYE
notes: pGEX-6p-1 construct; also called Axin-GDB; source: E. coli BL21 (DE3), purified (glutathione sepharose 4B); not shown: GST, N-terminal, kept
In turn, B1 showed a dissociation constant (Kd) in test [4] of approximately 2.2 µM.

B2: SIAH1-SBD (substrate-binding domain of E3 ubiquitin-protein ligase SIAH1, residues 89-282), Q8IUQ4-1 Q159A (protein)
chain: T1 chain with Q71A
Take B2: in test [5], the Kd worked out at 9.1 µM.

B3: SIAH1-SBD (substrate-binding domain of E3 ubiquitin-protein ligase SIAH1, residues 89-282), Q8IUQ4-1 T156A (protein)
chain: T1 chain with T68A
Regarding B3, in test [5], the Kd was 10.5 µM.

B4: Axin2 (residues 356–376) (peptide, UniProt Q9Y2T1 356-376, looked up)
chain: HRLPKEMTPVEPATFAAELIS
notes: human Axin2 (GenBank NM_004655.4), residues 356-376 within the GBD; also called Axin2_(356–376); Axin2 peptide; source: E. coli BL21 (DE3), purified (glutathione sepharose 4B, GST removed by PreScission protease, Superdex 75); not shown: GST, N-terminal, cleaved
On to B4, for which, in test [6], the binding result is “binds”.
